Test results published in article PMC3071548 (Molecular microbiology, 2010).

Target: the molecule itself
Assay: SEC

B1: YgbT, purified full-length protein (natural protein, E. coli, UniProt Q46896 1-305, looked up)
chain: MTWLPLNPIPLKDRVSMIFLQYGQIDVIDGAFVLIDKTGIRTHIPVGSVACIMLEPGTRVSHAAVRLAAQVGTLLVWVGEAGVRVYASGQPGGARSDKLLYQAKLALDEDLRLKVVRKMFELRFGEPAPARRSVEQLRGIEGSRVRATYALLAKQYGVTWNGRRYDPKDWEKGDTINQCISAATSCLYGVTEAAILAAGYAPAIGFVHTGKPLSFVYDIADIIKFDTVVPKAFEIARRNPGEPDREVRLACRDIFRSSKTLAKLIPLIEDVLAAGEIQPPAPPEDAQPVAIPLPVSLGDAGHRSS
  stoichiometry N: 2
